For two sequences, binding results are on record in paper PMC4509764.

The target in data set [1] is T1, NanR (Clostridium perfringens strain 13) (UniProt P26833).
T1 sequence: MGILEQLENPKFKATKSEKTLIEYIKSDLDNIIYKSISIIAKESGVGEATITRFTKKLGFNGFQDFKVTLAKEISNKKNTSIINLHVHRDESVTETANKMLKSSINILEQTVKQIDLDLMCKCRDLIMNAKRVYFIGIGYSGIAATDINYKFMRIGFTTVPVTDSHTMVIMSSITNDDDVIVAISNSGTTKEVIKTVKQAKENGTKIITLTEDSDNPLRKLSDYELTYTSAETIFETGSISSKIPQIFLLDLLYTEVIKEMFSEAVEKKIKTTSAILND
As to the kind of experiment: EMSA. The settings on record: 20 mM HEPES pH 7.6, 1 mM EDTA, 10 mM ([…], room temperature 20 min. On the technique in general: Mobility shift assays separate free from complexed probe on a gel.

In data set [2] the target is T1, NanR (Clostridium perfringens strain 13). As to the kind of experiment: competition. The settings on record: 20 mM HEPES pH 7.6, 1 mM EDTA, 10 mM ([…], room temperature 20 min.

Consider “CTTTCAATAATTACCCCTCCTAATTTATTTCATTAGTATTTATTATATGGTTCTTAACTTAATTATAACTTATTTCTAGGGAAAGTTATTATTAATTAGTAGATAAATATAAAATTTGCGTAGTATAAACTGTATTTTATACAATTTTAGTAATATTAAAGCTTATTTAAACGTATACATAATATAAGGTC (double strand) [nanJ promoter probe]”, for which the binding result in data set [1] is listed as “binds more weakly”.
As for “ATATTTTGATACATGCTCTTTTTTTATGAAATAAATTTTCAAAAACAAAAATTATAGGAATAAAAGTGAAAAAAATATGAATAAAAATGGCTTGAAACATAGGTTGTAGGCATATTTGGAAAAACTAAGAACCATAAAATAGAAAAATATTTTCAAAAAGTATTGAAATTCTGTGGGAAAAGGATTACAATAAAAACATAAAGAAAATAATTTTCAGAAAAAAGGTGATAAAATG (double strand) [nanE promoter probe]”, the binding result in data set [2] and in data set [1] was “binds” in each case.
